Data as given in patent US20100124555A1, “Compositions and Methods for Treating Pancreatic Tumors” (UNIVERSITE DE LA MEDITERRANEE, priority 2007, published 2010).

Tested on: E-cadherin, β-catenin in SOJ-6 cells
Assay: Immunoblotting and immunofluorescence of E-cadherin/β-catenin complex, SOJ-6
Type: cell-based, human
Description: SOJ-6 cells were grown in 6-well culture plates in RPMI 1640 medium with 10% FCS. At subconfluency, the medium was removed and replaced for 24 hours by fresh RPMI medium with 10% inactivated FCS. SOJ-6 cells were then incubated with mAb16D10 or Cisplatin for 24 hours. At the end of incubation, cells were washed three times with ice-cold PBS (without […] and Mg^++) harvested and pelleted by centrifugation. Pellets were washed twice and lysed at 4° C. in 0.5 ml of lysis buffer (10 mM Tris-HCl pH 7.4, 150 mM NaCl, 1% Triton X-100, 1 mM benzamidine and phosphatase inhibitors). After lysis, homogenates were clarified by centrifugation at 10,000 g for 10 min at 4° C. An aliquot was saved for protein determination using the bicinchoninic acid assay (Pierce, Rockford, Ill.). Proteins (50 μg/lane) in reducing SDS buffer were separated onto 10, 12, or 15% polyacrylamide with 0.1% SDS (according to the molecular weight range of proteins to be separated). After electrophoretic migration, proteins were silver stained. Alternatively, proteins were transferred onto nitrocellulose membranes using a Mini Transblot electrophoretic cell (BioRad, Hercule, Oreg.), and transferred proteins were immunodetected by using appropriate primary and secondary antibodies. After washes, membranes were developed with a chemoluminescent substrate according to the manufacturer's instructions (Roche Diagnostics, Switzerland). In each experiment, a control was included by omitting primary antibodies or by using a non-immune serum.
These molecules might confer to these lipid raft domains the role of signalling. Immunoblottings were performed to examine the expression of E-cadherin and of β-catenin by pancreatic tumoral cells.
Several studies have shown that, in the absence of Wnt signalling, the phosphorylation of residues of β-catenin addressed this protein to degradation by the ubiquitin-dependent proteasome pathway (Aberle et al., 1997 EMBO J. 16(13): 3797-804 and Orford et al., 1997 Biol. Chem. 272(40): 24735-8). […] Furthermore, β-catenin may be regulated by GSK-3β, which itself is activated in cells once treated with mAb16D10 (FIG. 11). […] Lastly, we wanted to determine whether the association of E-cadherin, β-catenin, and 16D10 antigen in the rafts microdomains is required for mAb16D10 to induce apoptosis (FIG. 13).

B1: 16D10: IgM monoclonal antibody recognizing FAPP/BSDL; producing cells deposited with the CNCM under the number I-3188 (antibody, listed as Mus musculus, V domains shown)
VH: QVQLQQSDAELVKPGASVKISCKASGYTFTDHAIHWVKQKPEQGLEWIGYISPGNDVIKFNEKFKGKATLTADKSSSTAYMQLNSLTSEDSAVYFCKRSEGGVFDYWGQGTTLTVS
VL: NIMMTQSPSSLAVSAGEKVTMSCKSSQSVLYSSNQKNFLAWYQQKPGQSPKLLIYWASTRESGVPDRFTGSGSGTDFTLTISSVQAEDLAVYYCHQYLSSYTFGGGTKLEIK
- phosphorylation of β-catenin (SOJ-6): phosphorylated
- expression of β-catenin (SOJ-6, 25 μg/ml, 24 h): did not induce a significant change in the expression of β-catenin
- E-cadherin protein expression (SOJ-6, 25 μg/ml, 24 h, versus irrelevant IgM): high E-cadherin protein expression
- localization of β-catenin (SOJ-6, fluorescence microscopy, plasma membrane in untreated cells): found in the cytosolic compartment
